The test addresses hen egg lysozyme (hen) (UniProt P00698). As to the kind of experiment: cell-based or functional assay.

Bounds are passed on as bounds.

Chain of pair of chimeric receptor polypeptides: HyHEL-10 VH fused to mouse erythropoietin receptor (pME-VHER) and HyHEL-10 VL fused to mouse erythropoietin receptor (pME-VLER), expressed on Ba/F3 cells (from (P14753 146-507, change not shown): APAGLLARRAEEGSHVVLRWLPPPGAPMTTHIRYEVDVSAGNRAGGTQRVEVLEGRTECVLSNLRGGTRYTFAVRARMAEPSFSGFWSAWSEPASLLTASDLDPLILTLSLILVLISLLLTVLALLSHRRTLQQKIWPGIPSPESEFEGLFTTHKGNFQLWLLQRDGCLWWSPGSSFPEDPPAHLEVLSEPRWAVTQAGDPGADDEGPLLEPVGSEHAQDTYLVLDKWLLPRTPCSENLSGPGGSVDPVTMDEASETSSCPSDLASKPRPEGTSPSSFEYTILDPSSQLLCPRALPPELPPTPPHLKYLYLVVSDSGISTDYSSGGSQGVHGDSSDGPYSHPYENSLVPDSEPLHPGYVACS
Chain of pair of chimeric receptor polypeptides: HyHEL-10 VH fused to mouse erythropoietin receptor (pME-VHER) and HyHEL-10 VL fused to mouse erythropoietin receptor (pME-VLER), expressed on Ba/F3 cells (from (P14753 146-507, change not shown): as above
Chain of hen egg lysozyme (hen) (P00698 19-147): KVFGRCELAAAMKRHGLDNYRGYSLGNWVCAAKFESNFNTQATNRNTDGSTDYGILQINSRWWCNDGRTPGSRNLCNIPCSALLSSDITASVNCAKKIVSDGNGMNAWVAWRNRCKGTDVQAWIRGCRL

“pair of chimeric receptor polypeptides: HyHEL-10 VH fused to mouse erythropoietin receptor (pME-VHER) and HyHEL-10 VL fused to mouse erythropoietin receptor (pME-VLER), expressed on Ba/F3 cells (from UniProt P14753 146-507; P14753 146-507)” had a cell proliferation of Clone G8 cultured with different constant amounts of HEL over a 5-day period (times the rate) greater than 5 and a lowest HEL concentration giving accelerated cell growth of 5 ng/mL.

Source of the values: patent US20030095962A1, “Chimeric cell-surface receptors that undergo antigen-induced association” (priority 1997, published 2003).
